Values of other authors, collected in PMC5871566.
pKd: −log10 of the molar value. Like-named read-outs stand apart in the source and are kept apart here.

Tests used:
[1] = target: C4b (Homo sapiens) (UniProt P0C0L4)
[2] = target: C4b (Homo sapiens) (UniProt P0C0L4); remark: listed apart in the source

Sequence of UniProt P0C0L4 (P0C0L4 20-1744, chain 1 of 2): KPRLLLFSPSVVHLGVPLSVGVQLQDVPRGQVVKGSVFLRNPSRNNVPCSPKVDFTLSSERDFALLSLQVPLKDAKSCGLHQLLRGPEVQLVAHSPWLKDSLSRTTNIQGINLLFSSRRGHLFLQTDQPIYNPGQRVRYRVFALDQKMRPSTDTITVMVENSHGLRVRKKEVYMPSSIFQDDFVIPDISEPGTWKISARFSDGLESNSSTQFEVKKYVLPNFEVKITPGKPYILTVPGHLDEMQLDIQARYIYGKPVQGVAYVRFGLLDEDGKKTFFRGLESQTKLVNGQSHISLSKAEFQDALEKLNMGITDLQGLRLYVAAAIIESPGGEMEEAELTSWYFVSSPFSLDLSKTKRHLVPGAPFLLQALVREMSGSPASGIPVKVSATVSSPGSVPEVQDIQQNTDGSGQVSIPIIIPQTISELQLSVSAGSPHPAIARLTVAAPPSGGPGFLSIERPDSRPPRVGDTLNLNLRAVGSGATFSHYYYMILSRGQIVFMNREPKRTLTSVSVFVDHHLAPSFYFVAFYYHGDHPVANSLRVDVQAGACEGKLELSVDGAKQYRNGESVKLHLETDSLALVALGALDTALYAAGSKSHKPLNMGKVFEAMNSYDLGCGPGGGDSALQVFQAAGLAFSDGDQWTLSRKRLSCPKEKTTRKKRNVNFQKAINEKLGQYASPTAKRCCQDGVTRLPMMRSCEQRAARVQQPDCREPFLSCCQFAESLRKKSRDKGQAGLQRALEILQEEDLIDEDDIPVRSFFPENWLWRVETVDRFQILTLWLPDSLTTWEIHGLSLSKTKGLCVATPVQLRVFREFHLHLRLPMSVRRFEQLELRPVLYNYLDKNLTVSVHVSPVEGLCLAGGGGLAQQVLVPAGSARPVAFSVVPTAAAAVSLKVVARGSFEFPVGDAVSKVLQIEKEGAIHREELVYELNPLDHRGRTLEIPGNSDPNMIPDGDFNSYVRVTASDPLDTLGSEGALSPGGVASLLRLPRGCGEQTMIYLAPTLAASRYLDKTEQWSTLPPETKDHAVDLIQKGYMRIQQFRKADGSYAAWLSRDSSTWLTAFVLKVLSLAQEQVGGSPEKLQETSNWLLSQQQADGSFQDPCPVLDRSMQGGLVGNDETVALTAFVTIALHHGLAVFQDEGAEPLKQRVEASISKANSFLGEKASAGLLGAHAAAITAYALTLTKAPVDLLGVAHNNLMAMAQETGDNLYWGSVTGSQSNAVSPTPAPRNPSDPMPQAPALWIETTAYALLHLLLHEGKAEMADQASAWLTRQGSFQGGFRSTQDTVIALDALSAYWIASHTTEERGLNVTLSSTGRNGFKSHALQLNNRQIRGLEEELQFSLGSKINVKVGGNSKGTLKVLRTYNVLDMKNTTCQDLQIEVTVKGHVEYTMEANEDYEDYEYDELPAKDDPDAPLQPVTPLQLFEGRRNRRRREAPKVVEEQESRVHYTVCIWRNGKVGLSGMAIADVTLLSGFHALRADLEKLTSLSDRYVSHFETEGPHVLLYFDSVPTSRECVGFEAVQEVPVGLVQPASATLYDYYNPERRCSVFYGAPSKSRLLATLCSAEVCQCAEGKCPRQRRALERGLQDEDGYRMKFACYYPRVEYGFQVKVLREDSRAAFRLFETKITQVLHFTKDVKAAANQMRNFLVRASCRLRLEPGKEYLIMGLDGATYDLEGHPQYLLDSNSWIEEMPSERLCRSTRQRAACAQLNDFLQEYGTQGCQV
Sequence of UniProt P0C0L4 (P0C0L5 20-1744, chain 2 of 2, further chain): as the sequence (P0C0L4 20-1744, chain 1 of 2) above, with A888T, D1054G, P1101L, C1102S, L1105I, D1106H, N1157S, V1188A, L1191R, S1267A counted along it

Eap individual domains (domain 3 or 4) domain 3 or domain 4 (from UniProt Q2FWW1)
pKd [1]: 4.40

Eap34 domains 3-4 (from UniProt Q99QS1)
pKd [2]: 6.28
